The source of these data is patent publication EP4328238A1 (Ustav organicke chemie a biochemie AV CR, v.v.i., dated 2024).

Experiment [1] deals with His-C3d N1134A (human) (UniProt P01024). In words: SPR (BIAcore T200, 25°C); biotinylated ISG65-Avi immobilised, C3d N1134A as analyte. (Surface plasmon resonance follows binding to a sensor surface in real time, without labels.)
In experiment [2] the target is Human C3(H2O) (human) (UniProt P01024). In words: SPR (BIAcore T200, 25°C); biotinylated ISG65-Avi immobilised, C3(H2O) as analyte; column koff1.
Experiment [3] deals with His-C3d N1134A (human) (UniProt P01024). As to the kind of experiment: SPR (BIAcore T200, 25°C); biotinylated ISG65-Avi immobilised, C3d N1134A as analyte; column kon1.
In experiment [4] the target is Human C3(H2O) (human) (UniProt P01024). In words: SPR (BIAcore T200, 25°C); biotinylated ISG65-Avi immobilised, C3(H2O) as analyte; column kon1.
For experiment [5], the target named is His-C3d N1134A (human) (UniProt P01024). In words: SPR (BIAcore T200, 25°C); biotinylated ISG65-Avi immobilised, C3d N1134A as analyte; relative to wild type.
Experiment [6] has the same target. In words: SPR (BIAcore T200, 25°C); biotinylated ISG65-Avi immobilised, C3d N1134A as analyte; column koff1.
Experiment [7] addresses Human C3(H2O) (human) (UniProt P01024). In words: SPR (BIAcore T200, 25°C); biotinylated ISG65-Avi immobilised, C3(H2O) as analyte.
Experiment [8] addresses His-C3d N1134A (human) (UniProt P01024). In words: SPR; ISG65-Avi immobilised, C3d mutant as analyte; the table prints 25.
The target in experiment [9] is T1, His-C3d-Avi (N-terminal His-tag, C-terminal Avi-tag, biotinylated) (human, UniProt P01024 996-1303, site-specific biotin on the C-terminal Avi-tag).
T1 construct: domain: C3d; Immobilised ligand in SPR for the ISG65 mutants; not shown: N-terminal His-tag; C-terminal Avi-tag
T1 sequence (P01024 996-1303 limits assumed): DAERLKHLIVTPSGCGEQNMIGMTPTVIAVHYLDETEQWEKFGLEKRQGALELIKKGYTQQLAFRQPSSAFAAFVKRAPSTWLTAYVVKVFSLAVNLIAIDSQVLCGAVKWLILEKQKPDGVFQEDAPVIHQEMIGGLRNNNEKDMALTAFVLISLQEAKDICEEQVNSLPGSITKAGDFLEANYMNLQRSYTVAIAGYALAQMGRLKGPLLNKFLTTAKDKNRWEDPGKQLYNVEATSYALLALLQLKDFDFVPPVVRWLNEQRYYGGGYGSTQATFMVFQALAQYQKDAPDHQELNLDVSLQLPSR
In words: SPR (BIAcore T200, 25°C); biotinylated C3d-Avi immobilised, ISG65 Y293A as analyte.

Experiment [10] concerns the target T2, Native human complement factor 3 (C3) (human, UniProt P01024 23-667; P01024 672-1663).
T2 construct: Purified from normal human serum (Sigma-Aldrich); also called native C3; human C3
In words: SPR (BIAcore T200, 25°C); biotinylated ISG65-Avi immobilised, C3 as analyte; column kon1.

Another experiment addresses T3, His-C3d E1110A (human, UniProt P01024 996-1303).
T3 construct: domain: C3d; not shown: His-tag
As to the kind of experiment: SPR (BIAcore T200, 25°C); biotinylated ISG65-Avi immobilised, C3d E1110A as analyte.

Experiment [11] has as its target T4, His-C3d (recombinant human C3d, thioester domain of C3) (human, UniProt P01024 996-1303).
T4 construct: domain: C3d; also called C3d Wt; TED; not shown: His-tag
In words: SPR (BIAcore T200, 25°C); biotinylated ISG65-Avi immobilised, C3d Wt as analyte; column koff1.

The target of experiment [12] is T5, Human C3b (human, UniProt P01024 749-1663; P01024 23-667).
T5 construct: domain: α-chain of C3b;domain: β-chain of C3b
T5 sequence (P01024 749-1663 limits assumed, chain 1 of 2): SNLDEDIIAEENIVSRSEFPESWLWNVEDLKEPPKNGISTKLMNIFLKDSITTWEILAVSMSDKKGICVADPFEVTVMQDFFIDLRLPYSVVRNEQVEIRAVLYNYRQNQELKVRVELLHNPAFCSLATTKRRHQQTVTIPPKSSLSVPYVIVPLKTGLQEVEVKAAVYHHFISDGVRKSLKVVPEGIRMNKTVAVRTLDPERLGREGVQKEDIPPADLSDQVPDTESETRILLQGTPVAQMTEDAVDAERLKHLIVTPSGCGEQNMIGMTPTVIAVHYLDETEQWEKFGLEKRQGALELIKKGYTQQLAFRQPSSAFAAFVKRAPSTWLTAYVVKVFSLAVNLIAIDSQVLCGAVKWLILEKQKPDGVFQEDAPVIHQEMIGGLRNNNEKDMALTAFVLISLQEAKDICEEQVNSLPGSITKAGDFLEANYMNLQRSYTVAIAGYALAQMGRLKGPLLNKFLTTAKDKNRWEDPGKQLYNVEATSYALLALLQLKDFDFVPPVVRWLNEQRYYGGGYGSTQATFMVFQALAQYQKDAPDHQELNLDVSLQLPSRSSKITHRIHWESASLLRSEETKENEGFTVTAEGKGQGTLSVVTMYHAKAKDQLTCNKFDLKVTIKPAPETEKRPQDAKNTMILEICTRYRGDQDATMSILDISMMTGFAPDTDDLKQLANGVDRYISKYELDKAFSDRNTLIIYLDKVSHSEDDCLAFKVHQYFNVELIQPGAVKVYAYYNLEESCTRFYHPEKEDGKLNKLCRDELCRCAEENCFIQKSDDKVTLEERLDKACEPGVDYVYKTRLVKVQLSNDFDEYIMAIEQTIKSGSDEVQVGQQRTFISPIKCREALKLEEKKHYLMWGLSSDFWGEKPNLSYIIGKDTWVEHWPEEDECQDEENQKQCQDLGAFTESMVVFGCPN
T5 sequence (P01024 23-667 limits assumed, chain 2 of 2): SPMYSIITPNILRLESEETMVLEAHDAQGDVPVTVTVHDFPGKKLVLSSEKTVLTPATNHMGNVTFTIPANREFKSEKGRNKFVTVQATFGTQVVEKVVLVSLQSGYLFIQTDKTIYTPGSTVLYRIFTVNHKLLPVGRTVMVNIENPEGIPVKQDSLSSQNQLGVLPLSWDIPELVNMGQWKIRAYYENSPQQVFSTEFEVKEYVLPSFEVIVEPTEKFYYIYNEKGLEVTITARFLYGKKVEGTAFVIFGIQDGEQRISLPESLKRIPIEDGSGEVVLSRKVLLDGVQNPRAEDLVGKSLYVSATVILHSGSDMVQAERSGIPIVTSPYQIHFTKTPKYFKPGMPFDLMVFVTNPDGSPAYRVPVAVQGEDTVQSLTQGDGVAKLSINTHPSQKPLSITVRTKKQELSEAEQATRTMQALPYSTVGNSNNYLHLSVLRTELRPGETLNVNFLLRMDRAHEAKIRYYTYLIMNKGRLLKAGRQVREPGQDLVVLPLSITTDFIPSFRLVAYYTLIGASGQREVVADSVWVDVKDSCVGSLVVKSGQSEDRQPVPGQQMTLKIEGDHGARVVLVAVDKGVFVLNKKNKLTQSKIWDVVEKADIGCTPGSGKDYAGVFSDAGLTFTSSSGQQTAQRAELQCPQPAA
As to the kind of experiment: SPR (BIAcore T200, 25°C); biotinylated ISG65-Avi immobilised, C3b as analyte; column koff1.

In experiment [13] the target is T4, His-C3d (recombinant human C3d, …). In words: SPR (BIAcore T200, 25°C); biotinylated ISG65-Avi immobilised, C3d Wt as analyte; column kon1.
Another experiment deals with T6, His-C3d L1109A (human, UniProt P01024 996-1303).
T6 construct: domain: C3d; not shown: His-tag
T6 sequence (P01024 996-1303 L1109A limits assumed): as the sequence (P01024 996-1303 limits assumed) above, with L114A counted along it
As to the kind of experiment: SPR (BIAcore T200, 25°C); biotinylated ISG65-Avi immobilised, C3d L1109A as analyte.

For experiment [14], the target named is T7, Human C3a (ANA domain of C3 when released) (human, UniProt P01024 672-748).
T7 construct: domain: C3a; also called free C3a; recombinant C3a
T7 sequence (P01024 672-748 limits assumed): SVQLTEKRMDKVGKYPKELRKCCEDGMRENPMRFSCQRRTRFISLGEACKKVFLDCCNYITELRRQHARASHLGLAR
As to the kind of experiment: SPR (BIAcore T200, 25°C); biotinylated ISG65-Avi immobilised, C3a as analyte.

Experiment [15] addresses T5, Human C3b. In words: SPR (BIAcore T200, 25°C); biotinylated ISG65-Avi immobilised, C3b as analyte.
Experiment [16] addresses T5, Human C3b. In words: SPR (BIAcore T200, 25°C); biotinylated ISG65-Avi immobilised, C3b as analyte; column kon1.
In experiment [17] the target is T2, Native human complement factor 3 (C3). As to the kind of experiment: SPR (BIAcore T200, 25°C); biotinylated ISG65-Avi immobilised, C3 as analyte; column koff1.
Experiment [18] has as its target T4, His-C3d (recombinant human C3d, …). In words: SPR (BIAcore T200, 25°C); biotinylated ISG65-Avi immobilised, C3d Wt as analyte.
Experiment [19] concerns the target T2, Native human complement factor 3 (C3). In words: SPR (BIAcore T200, 25°C); biotinylated ISG65-Avi immobilised, C3 as analyte.

T2 sequence (P01024 23-667 limits assumed, chain 1 of 2): as the sequence (P01024 23-667 limits assumed, chain 2 of 2) above
T2 sequence (P01024 672-1663 limits assumed, chain 2 of 2): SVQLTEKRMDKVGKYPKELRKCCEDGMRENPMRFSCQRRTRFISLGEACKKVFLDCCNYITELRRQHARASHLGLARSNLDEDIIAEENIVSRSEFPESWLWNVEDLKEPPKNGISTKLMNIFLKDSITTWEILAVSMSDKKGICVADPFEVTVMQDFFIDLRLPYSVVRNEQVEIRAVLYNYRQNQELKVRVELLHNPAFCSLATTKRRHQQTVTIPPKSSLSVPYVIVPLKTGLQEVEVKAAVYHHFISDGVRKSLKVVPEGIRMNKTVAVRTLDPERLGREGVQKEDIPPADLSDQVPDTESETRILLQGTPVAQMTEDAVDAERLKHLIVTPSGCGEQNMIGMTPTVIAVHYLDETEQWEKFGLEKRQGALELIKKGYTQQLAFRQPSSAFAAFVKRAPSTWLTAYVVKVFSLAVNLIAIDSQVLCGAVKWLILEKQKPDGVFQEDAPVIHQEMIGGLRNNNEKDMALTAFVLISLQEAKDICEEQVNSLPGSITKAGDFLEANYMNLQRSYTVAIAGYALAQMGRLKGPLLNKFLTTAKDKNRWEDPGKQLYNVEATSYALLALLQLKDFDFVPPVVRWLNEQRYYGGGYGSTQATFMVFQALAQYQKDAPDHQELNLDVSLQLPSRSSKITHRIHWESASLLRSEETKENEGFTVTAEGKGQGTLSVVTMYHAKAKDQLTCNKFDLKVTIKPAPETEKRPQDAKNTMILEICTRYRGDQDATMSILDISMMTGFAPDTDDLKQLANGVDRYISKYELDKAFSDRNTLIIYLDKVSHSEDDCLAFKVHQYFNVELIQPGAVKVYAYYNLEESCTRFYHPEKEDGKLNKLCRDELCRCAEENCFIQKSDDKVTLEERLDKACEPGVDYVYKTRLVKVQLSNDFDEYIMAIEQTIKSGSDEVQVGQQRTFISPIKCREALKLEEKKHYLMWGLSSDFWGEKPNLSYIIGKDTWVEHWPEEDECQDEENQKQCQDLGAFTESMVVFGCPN
Chain of His-C3d N1134A (human) (P01024 996-1303, stated change not applied): as the sequence (P01024 996-1303 limits assumed) above
T4 sequence (P01024 996-1303 limits assumed): as above
T3 sequence (P01024 996-1303 E1110A limits assumed): as the sequence (P01024 996-1303 limits assumed) above, with E115A counted along it

One may read the Kd as the concentration at which binding is half-saturated. Usually koff stands for the first-order rate constant of dissociation. In general, kon refers to the rate constant with which the complex forms. Turning to “His-ISG65 18-363-Avi (N-terminal hexa-histidine tag, C-terminal Avi-tag, biotinylated) (receptor)”, the figures for the Kd with His-C3d N1134A (human) [1] and with Human C3(H2O) (human) [7] were 28.6 nM and 18 nM, respectively. Besides, the koff with Human C3(H2O) (human) [2] was determined as 0.017 s⁻¹; with His-C3d N1134A (human) [6], 0.0542 s⁻¹. The kon with His-C3d N1134A (human) [3] was found to be 1.89e+06 M⁻¹ s⁻¹; in the experiment with Human C3(H2O) (human) [4] it was 942000 M⁻¹ s⁻¹. The molecule further showed an ISG65 binding (%) with His-C3d N1134A (human) [5] of 25%. Moreover, in the experiment with His-C3d N1134A (human) [8], the binding affinity (% of wild type) turned out to be 24%.

B1: His-ISG65 18-363 Y293A (receptor)
chain: MGSSHHHHHHSSGLVPRGSHMLLVIGSEDNRVPGDKKLTKEGAAALCKMKHLADKVAKERSQELKDRTQNFAGYIEFELYRIDYWLEKLNGPKGRKDGYAKLSDSDIEKVKEIFNKAKDGITKQLPEAKKAGEEAGKLHTEVKKAAENARGQDLDDDTAKSTGLYRVLNWYCITKEERHNATPNCDGIQFRKHYLSVNRSAIDCSSTSYEENYDWSANALQVALNSWEDVKPKKLESAGSDKNCNIGQSSESHPCTMTEEWQTPYKETVEKLRELEDAYQRGKKAHDAMLGYANTAAAVNTKVEQEKPLTEVIAAAKEAGKKGAKIIIPAAAPATPTNSTKNDDSAPTEHVDRGIATNETQVEVGID
notes: also called ISG65 Y293A
With B1, the binding result in experiment [9] is “no binding (tested: ISG65 analyte 1.5-100 nM)”.

B2: His-ISG65 18-363-Avi (N-terminal hexa-histidine tag, C-terminal Avi-tag, biotinylated) (receptor)
chain: LLVIGSEDNRVPGDKKLTKEGAAALCKMKHLADKVAKERSQELKDRTQNFAGYIEFELYRIDYWLEKLNGPKGRKDGYAKLSDSDIEKVKEIFNKAKDGITKQLPEAKKAGEEAGKLHTEVKKAAENARGQDLDDDTAKSTGLYRVLNWYCITKEERHNATPNCDGIQFRKHYLSVNRSAIDCSSTSYEENYDWSANALQVALNSWEDVKPKKLESAGSDKNCNIGQSSESHPCTMTEEWQTPYKETVEKLRELEDAYQRGKKAHDAMLGYANTAYAVNTKVEQEKPLTEVIAAAKEAGKKGAKIIIPAAAPATPTNSTKNDDSAPTEHVDRGIATNETQVEVGID
modifications: site-specific biotin on the C-terminal Avi-tag
notes: Immobilised ligand in SPR on a CAP chip; also called ISG65-Avi; biotinylated ISG65; not shown: N-terminal hexa-histidine tag of pET15b construct; C-terminal Avi-tag
B2: the kon in experiment [10] was 81800 M⁻¹ s⁻¹; in [13] it was 5.24e+06 M⁻¹ s⁻¹; with Human C3b [16], 262000 M⁻¹ s⁻¹. Besides, the Kd in the experiment with His-C3d E1110A came out at 15.7 nM; with His-C3d L1109A it was 52.9 nM; in [14], 18100 nM; with Human C3b [15], 80.9 nM; in experiment [18], 7.2 nM; in experiment [19] it was 129 nM. In addition, the koff in experiment [11] was 0.0379 s⁻¹; with Human C3b [12], 0.0212 s⁻¹; in [17], 0.0543 s⁻¹.
